# Residue numbers refer to the chain shown, from its start. In names and notes the source's numbering stands.
# T1: SEL-10(G567E) (C. elegans, UniProt Q93794 1-587, G567E)
# T1 sequence (looked up): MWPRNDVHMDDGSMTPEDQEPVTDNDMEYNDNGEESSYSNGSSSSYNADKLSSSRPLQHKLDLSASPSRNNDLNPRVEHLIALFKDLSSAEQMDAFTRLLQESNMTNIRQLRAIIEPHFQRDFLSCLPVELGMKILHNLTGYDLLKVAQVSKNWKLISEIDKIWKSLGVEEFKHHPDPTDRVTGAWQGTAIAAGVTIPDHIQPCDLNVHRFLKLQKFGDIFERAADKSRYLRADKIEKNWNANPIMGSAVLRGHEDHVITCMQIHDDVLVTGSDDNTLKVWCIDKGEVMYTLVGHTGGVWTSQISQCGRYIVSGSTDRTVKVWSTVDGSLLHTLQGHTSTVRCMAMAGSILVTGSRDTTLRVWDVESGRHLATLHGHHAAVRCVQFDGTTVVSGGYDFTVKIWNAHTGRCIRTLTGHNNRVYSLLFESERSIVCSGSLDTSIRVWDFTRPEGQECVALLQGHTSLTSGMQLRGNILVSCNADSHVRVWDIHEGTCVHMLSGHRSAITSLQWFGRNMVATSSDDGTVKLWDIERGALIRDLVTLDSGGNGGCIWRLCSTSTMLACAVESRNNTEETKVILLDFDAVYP
# T2: SEL-10, wild type (C. elegans, UniProt Q93794 1-587)
# T2 sequence (looked up): T1 sequence (looked up) with E567G
# B1: SKR-1 (Skp1-related 1), wild type (natural protein, C. elegans, UniProt G5ECU1 1-176, looked up)
# chain: MADQKKVSEAAKEREIKISSSDNEIFLVPRNVIRLSNTINTLLMDLGLDDEEGTNAEPIPVQNVTASILKKVISWCNHHHSDPISTEDSDNREKRTDDIGSWDVEFLKVDQGTLFELILAANYLDIKGLLDVTCKTVANMIKGKSPEEIRRTFNIKNDFTPEEEEQIRKENAWCED
# B2: SKR-1(M140I) (natural protein, C. elegans, UniProt G5ECU1 1-176, looked up)
# chain: B1 chain with M140I
# Tests used:
# SEL-10(G567E) = biological target: T1, SEL-10(G567E); assay: two-hybrid
# SEL-10, wild type = biological target: T2, SEL-10, wild type; assay: two-hybrid
binder,measurement,setting,value
B1,"beta-galactosidase activity (CPRG), percent of SKR-1/SEL-10",SEL-10(G567E),3%
B2,"beta-galactosidase activity (CPRG), percent of SKR-1/SEL-10","SEL-10, wild type",37%
same,"beta-galactosidase activity (CPRG), percent of SKR-1/SEL-10",SEL-10(G567E),0.4%

# Reference: publication PMC2626169 (Developmental biology, 2008)
